Columns and labels:
[1] = biological target: T1, BD-REV (full-length REV fused to the binding domain of GAL4) (Arabidopsis thaliana, UniProt Q9SE43 1-842); experiment: cell-based or functional assay
T1 sequence (looked up): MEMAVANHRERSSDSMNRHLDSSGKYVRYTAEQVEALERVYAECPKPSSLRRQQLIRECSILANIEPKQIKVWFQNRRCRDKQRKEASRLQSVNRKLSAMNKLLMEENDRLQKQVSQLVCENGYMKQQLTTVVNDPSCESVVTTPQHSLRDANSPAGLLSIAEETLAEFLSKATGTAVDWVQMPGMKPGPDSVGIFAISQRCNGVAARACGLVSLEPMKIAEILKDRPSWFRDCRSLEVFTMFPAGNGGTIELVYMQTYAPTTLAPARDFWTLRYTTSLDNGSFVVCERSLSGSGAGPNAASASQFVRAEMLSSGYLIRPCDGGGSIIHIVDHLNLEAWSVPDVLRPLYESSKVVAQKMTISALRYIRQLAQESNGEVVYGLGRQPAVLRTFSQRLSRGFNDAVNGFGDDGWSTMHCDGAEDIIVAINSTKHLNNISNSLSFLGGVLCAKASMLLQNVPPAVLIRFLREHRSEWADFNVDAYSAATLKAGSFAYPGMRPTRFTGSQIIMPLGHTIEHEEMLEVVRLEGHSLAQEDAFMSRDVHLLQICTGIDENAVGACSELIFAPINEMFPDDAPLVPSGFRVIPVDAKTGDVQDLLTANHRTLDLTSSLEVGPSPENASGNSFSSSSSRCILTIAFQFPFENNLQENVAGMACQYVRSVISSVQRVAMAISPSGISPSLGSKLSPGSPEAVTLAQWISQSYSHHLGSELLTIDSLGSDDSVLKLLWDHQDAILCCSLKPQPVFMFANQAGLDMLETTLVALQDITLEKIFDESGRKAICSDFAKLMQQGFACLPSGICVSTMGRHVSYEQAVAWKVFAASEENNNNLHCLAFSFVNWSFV

[2] = biological target: T2, DRN-GFP (DORNRÖSCHEN fused to GFP, from pDRN::DRN-GFP plants) (Arabidopsis thaliana, UniProt Q9SAD4 1-328); experiment: co-IP; anti-GFP on Protein A sepharose beads, blot probed with anti-MYC; extracts of young (younger than P10) and mature (older than P10) leaf axil-enriched tissues of pDRN::DRN-GFP p35S::REV-MYC plants, equal amounts of DRN-GFP; 20 mM HEPES pH 7.5, 40 mM KCl, 1 mM EDTA, 1% Triton X-100; settings: partners not purified
T2 construct: DORNRÖSCHEN (DRN/ESR1), AP2 family transcription factor, Arabidopsis thaliana, At1g12980; Cole et al., 2009; also called ESR1; ENHANCER OF SHOOT …ON 1; source: Arabidopsis pDRN::DRN-GFP p35S::REV-MYC plants, extract of leaf axil-enriched shoot tissues
T2 sequence (Q9SAD4 whole entry, the tested form may be a part): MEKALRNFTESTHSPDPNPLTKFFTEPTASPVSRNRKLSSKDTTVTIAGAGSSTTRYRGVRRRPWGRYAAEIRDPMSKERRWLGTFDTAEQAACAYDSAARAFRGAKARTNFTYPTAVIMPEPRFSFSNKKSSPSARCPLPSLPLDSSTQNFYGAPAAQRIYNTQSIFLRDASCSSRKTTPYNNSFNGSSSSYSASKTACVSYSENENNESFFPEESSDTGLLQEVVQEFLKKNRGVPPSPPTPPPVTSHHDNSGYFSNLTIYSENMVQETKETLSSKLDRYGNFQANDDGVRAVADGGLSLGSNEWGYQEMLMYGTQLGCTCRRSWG

B1: AD-DRNL (full-length DRNL fused to the activation domain of GAL4) (natural protein)
chain: not shown
B1 was tested, and the “pSTM::Luc reporter (LUC/GUS) in Arabidopsis protoplasts; co-transformation of p35S::DRNL and p35S::REV against transformation with one alone” value [1] was about 2.5 fold.

B2: REV-MYC (REVOLUTA with MYC tag, from p35S::REV-MYC plants) (natural protein, Arabidopsis thaliana, UniProt Q9SE43 1-842, looked up)
chain: T1 sequence (looked up)
notes: REVOLUTA (REV), class III homeodomain-leucine zipper transcription factor, Arabidopsis thaliana, At5g60690; source: Arabidopsis pDRN::DRN-GFP p35S::REV-MYC plants, extract of leaf axil-enriched shoot tissues
With B2 the “fold stronger co-precipitated REV-MYC band, old against young leaf axil-enriched tissues” value [2] was about 3 fold.

B3: AD-DRN (full-length DRN fused to the activation domain of GAL4) (natural protein)
chain: not shown
For B3, the “pSTM::Luc reporter (LUC/GUS) in Arabidopsis protoplasts; co-transformation of p35S::DRN and p35S::REV against transformation with one alone” value [1] was about 2.5 fold.

From article PMC6307885, “Spatiotemporal control of axillary meristem formation by interacting transcriptional regulators” (Development (Cambridge, England), 2018)
